This note sets out measurements from paper PMC11527279, “The SARS-CoV-2 ORF6 protein inhibits nuclear export of mRNA and spliceosomal U snRNA” (PLOS ONE, 2024).

The target in the assay is T1, GST-T7-ORF6-His (SARS-CoV-2, UniProt P0DTC6 1-61).
T1 construct: ORF6 protein of SARS-CoV-2, full-length recombinant protein; pGEX-T7-ORF6-His; T7 tag lies between GST and ORF6; also called GST-ORF6; not shown: GST, N-terminal, kept; T7, N-terminal, kept; His6, C-terminal, kept
T1 sequence: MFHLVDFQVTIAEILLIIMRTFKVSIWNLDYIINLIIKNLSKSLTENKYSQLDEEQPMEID
The settings on record: both partners purified.

B1: T7-ORF6-His (natural protein)
chain: T1 sequence
notes: ORF6 protein of SARS-CoV-2, full-length recombinant protein; From pGEX-T7-ORF6-His (pGEX-6p-1 backbone); also called SARS-CoV-2 ORF6 protein; not shown: GST, N-terminal, cleaved; T7, N-terminal, kept; His6, C-terminal, kept
B1: the binding result is given as “binds”.
